According to paper PMC4385751:
pKd: −log10 of the molar value.

Assays:
[1] = target: Commercial CD62L from R&D systems, Inc. (human) (UniProt P14151); assay: SPR
[2] = target: Recombinant soluble human CD62L N104E mutant (residues 1-194, C-terminal six-histidine tag) (human) (UniProt P14151); assay: SPR

Substance: type III porcine submaxillary mucin (PSM-III) (natural protein)
- pKd [1]: 4.57
- pKd [2]: 4.36
